Source: article PMC10901363 (Science Advances, 2024)
Residue numbers refer to the chain shown, from its start. Names may count otherwise. “And” between values parts separate entries of the source, which are not always exact repeats. Equal entries are not always repeated. Where no end group is shown, it is not given here. [ ]: non-standard residue; d: D form. pY = N[C@@H](Cc1ccc(OP(=O)(O)O)cc1)C(=O)O

Columns and labels:
mini PTPN21-EGFP [1] = target: mini PTPN21-EGFP (UniProt Q16825); assay: MST
[2] = target: T1, PTPN21 FERM domain (FERM^PTPN21) (Homo sapiens, UniProt Q16825); assay: microscale thermophoresis (FERM-EGFP); type: binding
T1 construct: FERM domain, residues 21 to 319 (18 to 319 stated for the crystal); E. coli Rosetta (DE3), His-sumo tag removed; C-terminal EGFP fusion for MST; Flag-tagged for PIP-strips; monomer
T1 sequence (Q16825 21-319): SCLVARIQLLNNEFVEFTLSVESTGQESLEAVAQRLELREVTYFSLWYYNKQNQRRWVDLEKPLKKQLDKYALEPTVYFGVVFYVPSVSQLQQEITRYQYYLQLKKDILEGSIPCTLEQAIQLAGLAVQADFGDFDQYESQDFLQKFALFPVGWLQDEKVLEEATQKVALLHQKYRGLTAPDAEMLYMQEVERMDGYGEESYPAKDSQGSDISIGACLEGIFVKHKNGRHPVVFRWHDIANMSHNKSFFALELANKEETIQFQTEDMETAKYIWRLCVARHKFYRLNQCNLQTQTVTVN

PTPN21 PTP C1108S-EGFP [3] = target: T2, PTPN21 PTP C1108S-EGFP (UniProt Q16825 872-1174, C1108S); assay: MST
T2 sequence: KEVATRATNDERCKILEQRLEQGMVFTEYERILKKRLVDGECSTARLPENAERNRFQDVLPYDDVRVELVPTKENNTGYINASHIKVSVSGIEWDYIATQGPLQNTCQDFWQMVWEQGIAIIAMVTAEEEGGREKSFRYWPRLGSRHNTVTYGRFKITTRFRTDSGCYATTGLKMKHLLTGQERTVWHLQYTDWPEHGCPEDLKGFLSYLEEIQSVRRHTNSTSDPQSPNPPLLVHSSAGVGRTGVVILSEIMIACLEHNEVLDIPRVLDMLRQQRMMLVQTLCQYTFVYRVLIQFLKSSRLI

[4] = target: T3, PTPN21 PTP E1067D C1108S-EGFP (UniProt Q16825 872-1174, E1067D | C1108S); assay: MST
T3 sequence: T2 sequence with E196D

PTPN21 PTP R1114Q [5] = target: T4, PTPN21 PTP R1114Q (UniProt Q16825 872-1174, R1114Q); assay: MST
T4 sequence: T2 sequence with S237C, R243Q

PTPN21 PTP C1108S [6] = target: T5, PTPN21 PTP C1108S (UniProt Q16825 872-1174, C1108S); assay: crystal structure; PTP C1108S with twofold molar excess of Src pY530 peptide, hanging drop, 4°C; conditions: both partners purified
T5 construct: also called PTP^PTPN21 C1108S; source: E. coli Rosetta (DE3), purified (as the wild type); not shown: His-sumo, N-terminal, cleaved
T5 sequence (looked up): T2 sequence

PTPN21 PTP C1108S-EGFP [7] = target: T6, PTPN21 PTP C1108S-EGFP (UniProt Q16825 872-1174, C1108S); assay: MST; fluorescent PTP mutant-EGFP (80 nM) mixed with an increasing amount of Src pY530 peptide; 20 mM Hepes pH 7.0, 150 mM NaCl, 0.3 mM TCEP, 1.5 mM BSA; conditions: both partners purified
T6 construct: also called PTP^PTPN21 C1108S; source: E. coli Rosetta (DE3), purified (as the wild type); not shown: His-sumo, N-terminal, cleaved; EGFP, C-terminal, kept
T6 sequence (looked up): T2 sequence

[8] = target: T7, PTPN21 PTP E1067D C1108S-EGFP (UniProt Q16825 872-1174, E1067D | C1108S); assay: as above; conditions: both partners purified
T7 construct: also called PTP^PTPN21 C1108S E1067D; source: E. coli Rosetta (DE3), purified (as the wild type); not shown: His-sumo, N-terminal, cleaved; EGFP, C-terminal, kept
T7 sequence (looked up): T2 sequence with E196D

PTPN21 PTP R1114Q [9] = target: T8, PTPN21 PTP R1114Q (UniProt Q16825 872-1174, R1114Q); assay: as above; conditions: both partners purified
T8 construct: also called PTP^PTPN21 R1114Q; source: E. coli Rosetta (DE3), purified (as the wild type)
T8 sequence (looked up): T2 sequence with S237C, R243Q

mini PTPN21-EGFP [10] = target: T9, mini PTPN21-EGFP (UniProt Q16825 878-1174; Q16825 878-1174); assay: MST
T9 chain: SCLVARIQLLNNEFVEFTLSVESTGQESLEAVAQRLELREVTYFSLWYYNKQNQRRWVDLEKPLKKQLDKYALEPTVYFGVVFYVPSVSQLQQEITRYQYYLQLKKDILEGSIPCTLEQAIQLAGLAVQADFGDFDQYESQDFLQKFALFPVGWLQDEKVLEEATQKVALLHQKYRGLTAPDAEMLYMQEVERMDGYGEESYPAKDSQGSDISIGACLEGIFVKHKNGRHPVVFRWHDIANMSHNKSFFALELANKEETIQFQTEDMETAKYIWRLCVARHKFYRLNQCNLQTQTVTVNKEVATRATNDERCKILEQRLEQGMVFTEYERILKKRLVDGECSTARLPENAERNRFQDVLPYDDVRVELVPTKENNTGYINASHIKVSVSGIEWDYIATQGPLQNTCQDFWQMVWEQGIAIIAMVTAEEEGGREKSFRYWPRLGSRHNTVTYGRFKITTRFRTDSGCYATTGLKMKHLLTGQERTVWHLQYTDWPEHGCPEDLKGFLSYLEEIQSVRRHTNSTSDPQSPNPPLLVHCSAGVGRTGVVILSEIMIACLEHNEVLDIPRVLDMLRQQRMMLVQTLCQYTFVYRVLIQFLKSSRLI

mini PTPN21-EGFP [11] = target: T9, mini PTPN21-EGFP; assay: MST; + Ins(1,3)P2
PTPN21 PTP C1108S [12] = target: T5, PTPN21 PTP C1108S; assay: crystal structure; mini PTPN21 C1108S: FERM and PTP joined on one chain by a flexible linker, hanging drop, 4°C; conditions: both partners purified
PTPN21 PTP-EGFP [13] = target: T10, PTPN21 PTP-EGFP (UniProt Q16825 872-1174); assay: MST; PTP-EGFP fixed at 80 nM, FERM titrated from 300 μM to 0.09 nM; 20 mM Hepes pH 7.0, 150 mM NaCl, 0.3 mM TCEP, 1.5 mM BSA; mutants measured similarly; conditions: both partners purified
T10 construct: also called WT PTP-EGFP; source: E. coli Rosetta (DE3), purified (as the untagged domain); not shown: His-sumo, N-terminal, cleaved; EGFP, C-terminal, kept
T10 sequence (looked up): T2 sequence with S237C

PTPN21 PTP-EGFP [14] = target: T10, PTPN21 PTP-EGFP; assay: MST; conditions: both partners purified
PTPN21 FERM-EGFP = target: T11, PTPN21 FERM-EGFP (UniProt Q16825 21-319); assay: MST
T11 chain: T1 sequence (Q16825 21-319)

[15] = substrate: Cc1cc(=O)oc2c(F)c(OP(=O)(O)O)c(F)cc12; assay: fluorescent phosphatase assay, Michaelis-Menten; type: biochemical, Homo sapiens; conditions: 50 mM Hepes pH 7.0, 150 mM NaCl, 1 mM EDTA, 2 mM DTT, RT

## HPV18 E7 protein, full length (from UniProt P06788 1-105) (natural protein)
Mini PTPN21-EGFP [1]
  Kd: 200 nM

## O=P(O)(O)O[C@@H]1[C@@H](O)[C@H](OP(=O)(O)O)[C@H](O)[C@H](O)[C@H]1O [ins(1,5)P2]
[2]
  Kd: ~1320 nM

## HPV18 E7 CR3 domain (from UniProt P06788 54-105) (domain or fragment)
Mini PTPN21-EGFP [1]
  Kd: 49 nM

## O=P(O)(O)O[C@@H]1[C@H](O)[C@H](OP(=O)(O)O)[C@@H](O)[C@H](O)[C@H]1O [ins(1,3)P2]
[2]
  Kd: ~6110 nM

B1: Src pY530 peptide (peptide)
peptide: STEPQ[pY]QPGENL
notes: also called Src pY530 synthetic peptide; Peptide Src pY530; source: synthetic peptide (ChinaPeptides Co. Ltd.)
PTPN21 PTP C1108S-EGFP [3]
  Kd: 2930 nM
[4]
  Kd: 5610 nM
PTPN21 PTP R1114Q [5]
  Kd: 6230 nM
PTPN21 PTP C1108S [6]
  binding result: binds
PTPN21 PTP C1108S-EGFP [7]
  binding result: binds
[8]
  binding result: binds
PTPN21 PTP R1114Q [9]
  binding result: binds

B2: HPV18 E7 protein, full length (natural protein)
chain: MHGPKATLQDIVLHLEPQNEIPVDLLCHEQLSDSEEENDEIDGVNHQHLPARRAEPQRHTMLCMCCKCEARIKLVVESSADDLRAFQQLFLNTLSFVCPWCASQQ
Mini PTPN21-EGFP [10]
  Kd: 215 nM
Mini PTPN21-EGFP [11]
  Kd: 352 nM

B3: PTPN21 FERM domain (residues 21 to 319) (domain or fragment, UniProt Q16825 21-319, looked up)
chain: T1 sequence (Q16825 21-319)
notes: also called FERM^PTPN21; source: E. coli Rosetta (DE3), purified (Ni-NTA, source Q, Superdex 200); not shown: His-sumo, N-terminal, cleaved
PTPN21 PTP C1108S [12]
  binding result: binds
PTPN21 PTP-EGFP [13]
  Kd: ~7600 nM

B4: HPV18 E7 CR3 domain (domain or fragment)
chain: AEPQRHTMLCMCCKCEARIKLVVESSADDLRAFQQLFLNTLSFVCPWCASQQ
notes: source: E. coli Rosetta (DE3), purified (as the PTPN21 domains); not shown: His-sumo, N-terminal, cleaved
PTPN21 PTP-EGFP [14]
  Kd: ~2.8 nM
Mini PTPN21-EGFP [11]
  Kd: 40.3 nM

B5: PTPN21 PTP domain (residues 872 to 1174) (domain or fragment)
chain: T2 sequence with S237C
PTPN21 FERM-EGFP
  Kd: 2310 nM and 3480 nM and 1610 nM
[15]
  Km: 28.6 µM
  kcat: 1.2 s⁻¹

B6: PTPN21 PTP domain (PTP^PTPN21) (Homo sapiens; E1067D) (protein)
chain: T2 sequence with E196D, S237C
notes: PTP (phosphatase) domain, residues 872 to 1174; E. coli Rosetta (DE3), His-sumo tag removed
[15]; 0.2 nM enzyme
  Km: 250.93 ± 15.69 µM
  kcat: 38.32 ± 4.66 s⁻¹
